Measured values taken from patent US20260193342A1 (ZOETIS SERVICES, published 2026).

Target: canine FcRn complex (FcRn-α subunit and β-microglobulin) (canine, UniProt A0A8I3PFR8 25-347, biotin on the BAP tag by BirA (Example 5 only))
Test: SPR (Biacore), biotinylated FcRn on SA chip, IgG flowed, pH 6, 15 C

canine FcRn complex (FcRn-α subunit and β-microglobulin), sequence (A0A8I3PFR8 entry or part of it, one chain of several): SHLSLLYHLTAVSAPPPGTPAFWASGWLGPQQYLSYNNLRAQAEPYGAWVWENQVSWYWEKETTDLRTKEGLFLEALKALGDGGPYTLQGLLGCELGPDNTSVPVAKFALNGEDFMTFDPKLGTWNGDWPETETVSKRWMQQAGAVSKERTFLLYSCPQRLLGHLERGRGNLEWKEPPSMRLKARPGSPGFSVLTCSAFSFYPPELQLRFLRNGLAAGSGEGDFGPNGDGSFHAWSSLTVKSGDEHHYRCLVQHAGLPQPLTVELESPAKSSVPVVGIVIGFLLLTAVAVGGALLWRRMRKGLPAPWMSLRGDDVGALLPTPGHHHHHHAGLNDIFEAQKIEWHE

Row | Binder | Kd
1 | mAb1, caninized anti-IL31 antibody 34D03, canine IgGA, WT (antibody, VH/VL: the caninized 34D03 entries of the listing; also called ID No. 1) heavy: EVQLVESGGDLVKPGGSLRLSCVASGFTFSNYGMSWVRQAPGKGLQWVATISYGGSYTYYPDNIKGRFTISRDNAKNTLYLQMNSLRAEDTAMYYCVRGYGYDTMDYWGQGTLVTVSSASTTAPSVFPLAPSCGSTSGSTVALACLVSGYFPEPVTVSWNSGSLTSGVHTFPSVLQSSGLHSLSSMVTVPSSRWPSETFTCNVVHPASNTKVDKPVFNECRCTDTPPCPVPEPLGGPSVLIFPPKPKDILRITRTPEVTCVVLDLGREDPEVQISWFVDGKEVHTAKTQSREQQFNGTYRVVSVLPIEHQDWLTGKEFKCRVNHIDLPSPIERTISKARGRAHKPSVYVLPPSPKELSSSDTVSITCLIKDFYPPDIDVEWQSNGQQEPERKHRMTPPQLDEDGSYFLYSKLSVDKSRWQQGDPFTCAVMHETLQNHYTDLSLSHSPGK VL: EIVMTQSPASLSLSQEEKVTITCKASQSVSFAGTGLMHWYQQKPGQAPKLLIYRASNLEAGVPSRFSGSGSGTDFSFTISSLEPEDVAVYYCQQSREYPWTFGQGTKLEIK | 79.9 nM
2 | mAb1, caninized anti-IL31 antibody 34D03, canine IgGA, N434R (antibody) chain 1: EVQLVESGGDLVKPGGSLRLSCVASGFTFSNYGMSWVRQAPGKGLQWVATISYGGSYTYYPDNIKGRFTISRDNAKNTLYLQMNSLRAEDTAMYYCVRGYGYDTMDYWGQGTLVTVSSASTTAPSVFPLAPSCGSTSGSTVALACLVSGYFPEPVTVSWNSGSLTSGVHTFPSVLQSSGLHSLSSMVTVPSSRWPSETFTCNVVHPASNTKVDKPVFNECRCTDTPPCPVPEPLGGPSVLIFPPKPKDILRITRTPEVTCVVLDLGREDPEVQISWFVDGKEVHTAKTQSREQQFNGTYRVVSVLPIEHQDWLTGKEFKCRVNHIDLPSPIERTISKARGRAHKPSVYVLPPSPKELSSSDTVSITCLIKDFYPPDIDVEWQSNGQQEPERKHRMTPPQLDEDGSYFLYSKLSVDKSRWQQGDPFTCAVMHETLQRHYTDLSLSHSPGK chain 2: EIVMTQSPASLSLSQEEKVTITCKASQSVSFAGTGLMHWYQQKPGQAPKLLIYRASNLEAGVPSRFSGSGSGTDFSFTISSLEPEDVAVYYCQQSREYPWTFGQGTKLEIKRNDAQPAVYLFQPSPDQLHTGSASVVCLLNSFYPKDINVKWKVDGVIQDTGIQESVTEQDKDSTYSLSSTLTMSSTEYLSHELYSCEITHKSLPSTLIKSFQRSEC | 43.8 nM
3 | mAb2 of Table 4A, caninized anti-NGF antibody ZTS-841, canine IgGA, WT (antibody, also called ID No. 39) heavy: EVQLVESGGDLVKPGGSLRLSCVASGFTFSSHGMHWVRQSPGKGLQWVAVINSGGSSTYYTDAVKGRFTISRDNAKNTVYLQMNSLRAEDTAMYYCAKESVGGWEQLVGPHFDYWGQGTLVIVSSASTTAPSVFPLAPSCGSTSGSTVALACLVSGYFPEPVTVSWNSGSLTSGVHTFPSVLQSSGLHSLSSMVTVPSSRWPSETFTCNVVHPASNTKVDKPVFNECRCTDTPPCPVPEPLGGPSVLIFPPKPKDILRITRTPEVTCVVLDLGREDPEVQISWFVDGKEVHTAKTQSREQQFNGTYRVVSVLPIEHQDWLTGKEFKCRVNHIDLPSPIERTISKARGRAHKPSVYVLPPSPKELSSSDTVSITCLIKDFYPPDIDVEWQSNGQQEPERKHRMTPPQLDEDGSYFLYSKLSVDKSRWQQGDPFTCAVMHETLQNHYTDLSLSHSPGK VL: QSVLTQPTSVSGSLGQRVTISCSGSTNNIGILGASWYQLFPGKAPKLLVYGNGNRPSGVPDRFSGADSGDSVTLTITGLQAEDEADYYCQSFDTTLGAHVFGGGTHLTVL | 95.5 nM
4 | mAb2 of Table 4A, caninized anti-NGF antibody ZTS-841, canine IgGA, N434S (antibody, also called ID No. 43) heavy: EVQLVESGGDLVKPGGSLRLSCVASGFTFSSHGMHWVRQSPGKGLQWVAVINSGGSSTYYTDAVKGRFTISRDNAKNTVYLQMNSLRAEDTAMYYCAKESVGGWEQLVGPHFDYWGQGTLVIVSSASTTAPSVFPLAPSCGSTSGSTVALACLVSGYFPEPVTVSWNSGSLTSGVHTFPSVLQSSGLHSLSSMVTVPSSRWPSETFTCNVVHPASNTKVDKPVFNECRCTDTPPCPVPEPLGGPSVLIFPPKPKDILRITRTPEVTCVVLDLGREDPEVQISWFVDGKEVHTAKTQSREQQFNGTYRVVSVLPIEHQDWLTGKEFKCRVNHIDLPSPIERTISKARGRAHKPSVYVLPPSPKELSSSDTVSITCLIKDFYPPDIDVEWQSNGQQEPERKHRMTPPQLDEDGSYFLYSKLSVDKSRWQQGDPFTCAVMHETLQSHYTDLSLSHSPGK VL: QSVLTQPTSVSGSLGQRVTISCSGSTNNIGILGASWYQLFPGKAPKLLVYGNGNRPSGVPDRFSGADSGDSVTLTITGLQAEDEADYYCQSFDTTLGAHVFGGGTHLTVL | 147 nM

Now those with a lower Kd, led by results:

Row | Kd | Binder
5 | 12.3 nM | mAb1, caninized anti-IL31 antibody 34D03, canine IgGA, N434H (antibody) chain 1: EVQLVESGGDLVKPGGSLRLSCVASGFTFSNYGMSWVRQAPGKGLQWVATISYGGSYTYYPDNIKGRFTISRDNAKNTLYLQMNSLRAEDTAMYYCVRGYGYDTMDYWGQGTLVTVSSASTTAPSVFPLAPSCGSTSGSTVALACLVSGYFPEPVTVSWNSGSLTSGVHTFPSVLQSSGLHSLSSMVTVPSSRWPSETFTCNVVHPASNTKVDKPVFNECRCTDTPPCPVPEPLGGPSVLIFPPKPKDILRITRTPEVTCVVLDLGREDPEVQISWFVDGKEVHTAKTQSREQQFNGTYRVVSVLPIEHQDWLTGKEFKCRVNHIDLPSPIERTISKARGRAHKPSVYVLPPSPKELSSSDTVSITCLIKDFYPPDIDVEWQSNGQQEPERKHRMTPPQLDEDGSYFLYSKLSVDKSRWQQGDPFTCAVMHETLQHHYTDLSLSHSPGK chain 2: EIVMTQSPASLSLSQEEKVTITCKASQSVSFAGTGLMHWYQQKPGQAPKLLIYRASNLEAGVPSRFSGSGSGTDFSFTISSLEPEDVAVYYCQQSREYPWTFGQGTKLEIKRNDAQPAVYLFQPSPDQLHTGSASVVCLLNSFYPKDINVKWKVDGVIQDTGIQESVTEQDKDSTYSLSSTLTMSSTEYLSHELYSCEITHKSLPSTLIKSFQRSEC
6 | 12.7 nM | mAb1, caninized anti-IL31 antibody 34D03, canine IgGA, N434F (antibody) chain 1: EVQLVESGGDLVKPGGSLRLSCVASGFTFSNYGMSWVRQAPGKGLQWVATISYGGSYTYYPDNIKGRFTISRDNAKNTLYLQMNSLRAEDTAMYYCVRGYGYDTMDYWGQGTLVTVSSASTTAPSVFPLAPSCGSTSGSTVALACLVSGYFPEPVTVSWNSGSLTSGVHTFPSVLQSSGLHSLSSMVTVPSSRWPSETFTCNVVHPASNTKVDKPVFNECRCTDTPPCPVPEPLGGPSVLIFPPKPKDILRITRTPEVTCVVLDLGREDPEVQISWFVDGKEVHTAKTQSREQQFNGTYRVVSVLPIEHQDWLTGKEFKCRVNHIDLPSPIERTISKARGRAHKPSVYVLPPSPKELSSSDTVSITCLIKDFYPPDIDVEWQSNGQQEPERKHRMTPPQLDEDGSYFLYSKLSVDKSRWQQGDPFTCAVMHETLQFHYTDLSLSHSPGK chain 2: EIVMTQSPASLSLSQEEKVTITCKASQSVSFAGTGLMHWYQQKPGQAPKLLIYRASNLEAGVPSRFSGSGSGTDFSFTISSLEPEDVAVYYCQQSREYPWTFGQGTKLEIKRNDAQPAVYLFQPSPDQLHTGSASVVCLLNSFYPKDINVKWKVDGVIQDTGIQESVTEQDKDSTYSLSSTLTMSSTEYLSHELYSCEITHKSLPSTLIKSFQRSEC
7 | 10.4 nM | mAb2 of Table 4A, caninized anti-NGF antibody ZTS-841, canine IgGA, N434H (antibody, also called ID No. 41) heavy: EVQLVESGGDLVKPGGSLRLSCVASGFTFSSHGMHWVRQSPGKGLQWVAVINSGGSSTYYTDAVKGRFTISRDNAKNTVYLQMNSLRAEDTAMYYCAKESVGGWEQLVGPHFDYWGQGTLVIVSSASTTAPSVFPLAPSCGSTSGSTVALACLVSGYFPEPVTVSWNSGSLTSGVHTFPSVLQSSGLHSLSSMVTVPSSRWPSETFTCNVVHPASNTKVDKPVFNECRCTDTPPCPVPEPLGGPSVLIFPPKPKDILRITRTPEVTCVVLDLGREDPEVQISWFVDGKEVHTAKTQSREQQFNGTYRVVSVLPIEHQDWLTGKEFKCRVNHIDLPSPIERTISKARGRAHKPSVYVLPPSPKELSSSDTVSITCLIKDFYPPDIDVEWQSNGQQEPERKHRMTPPQLDEDGSYFLYSKLSVDKSRWQQGDPFTCAVMHETLQHHYTDLSLSHSPGK VL: QSVLTQPTSVSGSLGQRVTISCSGSTNNIGILGASWYQLFPGKAPKLLVYGNGNRPSGVPDRFSGADSGDSVTLTITGLQAEDEADYYCQSFDTTLGAHVFGGGTHLTVL
8 | 9.81 nM | mAb2 of Table 4A, caninized anti-NGF antibody ZTS-841, canine IgGA, N434F (antibody, also called ID No. 40) heavy: EVQLVESGGDLVKPGGSLRLSCVASGFTFSSHGMHWVRQSPGKGLQWVAVINSGGSSTYYTDAVKGRFTISRDNAKNTVYLQMNSLRAEDTAMYYCAKESVGGWEQLVGPHFDYWGQGTLVIVSSASTTAPSVFPLAPSCGSTSGSTVALACLVSGYFPEPVTVSWNSGSLTSGVHTFPSVLQSSGLHSLSSMVTVPSSRWPSETFTCNVVHPASNTKVDKPVFNECRCTDTPPCPVPEPLGGPSVLIFPPKPKDILRITRTPEVTCVVLDLGREDPEVQISWFVDGKEVHTAKTQSREQQFNGTYRVVSVLPIEHQDWLTGKEFKCRVNHIDLPSPIERTISKARGRAHKPSVYVLPPSPKELSSSDTVSITCLIKDFYPPDIDVEWQSNGQQEPERKHRMTPPQLDEDGSYFLYSKLSVDKSRWQQGDPFTCAVMHETLQFHYTDLSLSHSPGK VL: QSVLTQPTSVSGSLGQRVTISCSGSTNNIGILGASWYQLFPGKAPKLLVYGNGNRPSGVPDRFSGADSGDSVTLTITGLQAEDEADYYCQSFDTTLGAHVFGGGTHLTVL
9 | 15.1 nM | mAb2 of Table 4A, caninized anti-NGF antibody ZTS-841, canine IgGA, N434R (antibody, also called ID No. 42) heavy: EVQLVESGGDLVKPGGSLRLSCVASGFTFSSHGMHWVRQSPGKGLQWVAVINSGGSSTYYTDAVKGRFTISRDNAKNTVYLQMNSLRAEDTAMYYCAKESVGGWEQLVGPHFDYWGQGTLVIVSSASTTAPSVFPLAPSCGSTSGSTVALACLVSGYFPEPVTVSWNSGSLTSGVHTFPSVLQSSGLHSLSSMVTVPSSRWPSETFTCNVVHPASNTKVDKPVFNECRCTDTPPCPVPEPLGGPSVLIFPPKPKDILRITRTPEVTCVVLDLGREDPEVQISWFVDGKEVHTAKTQSREQQFNGTYRVVSVLPIEHQDWLTGKEFKCRVNHIDLPSPIERTISKARGRAHKPSVYVLPPSPKELSSSDTVSITCLIKDFYPPDIDVEWQSNGQQEPERKHRMTPPQLDEDGSYFLYSKLSVDKSRWQQGDPFTCAVMHETLQRHYTDLSLSHSPGK VL: QSVLTQPTSVSGSLGQRVTISCSGSTNNIGILGASWYQLFPGKAPKLLVYGNGNRPSGVPDRFSGADSGDSVTLTITGLQAEDEADYYCQSFDTTLGAHVFGGGTHLTVL
